{"source": "patent US20090312253A1", "key": {"[1]": {"target": "LRP6 expressed on HEK cells transfected with the LRP6 plasmid", "assay": "Dkk1-AP conditioned medium on LRP6-transfected HEK cells, AP activity in cell lysate, wild type = 100%"}, "[2]": {"target": "LRP6 expressed on HEK cells transfected with the LRP6 plasmid", "assay": "binding of Dkk1 to LRP6, assay not described for this mutant (data not shown)"}}}
{"binder": "mouse Dkk1-AP mutant H210E (ligand, UniProt O54908 32-272, looked up, not shown: large carriers) TLNSVLINSNAIKNLPPPLGGAGGQPGSAVSVAPGVLYEGGNKYQTLDNYQPYPCAEDEECGSDEYCSSPSRGAAGVGGVQICLACRKRRKRCMRHAMCCPGNYCKNGICMPSDHSHFPRGEIEESIIENLGNDHNAAAGDGYPRRTTLTSKIYHTKGQEGSVCLRSSDCAAGLCCAREFWSKICKPVLKEGQVCTKHKRKGSHGLEIFQRCYCGEGLACRIQKDHHQASNSSRLHTCQRH", "values": [{"measurement": "reduction of binding to LRP6 against wild-type Dkk1", "setting": "[1]", "value": "> 50", "unit": "%"}]}
{"binder": "mouse Dkk1-AP mutant K217E (ligand, UniProt O54908 32-272, looked up, not shown: large carriers) TLNSVLINSNAIKNLPPPLGGAGGQPGSAVSVAPGVLYEGGNKYQTLDNYQPYPCAEDEECGSDEYCSSPSRGAAGVGGVQICLACRKRRKRCMRHAMCCPGNYCKNGICMPSDHSHFPRGEIEESIIENLGNDHNAAAGDGYPRRTTLTSKIYHTKGQEGSVCLRSSDCAAGLCCARHFWSKICEPVLKEGQVCTKHKRKGSHGLEIFQRCYCGEGLACRIQKDHHQASNSSRLHTCQRH", "values": [{"measurement": "reduction of binding to LRP6 against wild-type Dkk1", "setting": "[1]", "value": "> 50", "unit": "%"}]}
{"binder": "mouse Dkk1-AP mutant R242E (ligand, UniProt O54908 32-272, looked up, not shown: large carriers) TLNSVLINSNAIKNLPPPLGGAGGQPGSAVSVAPGVLYEGGNKYQTLDNYQPYPCAEDEECGSDEYCSSPSRGAAGVGGVQICLACRKRRKRCMRHAMCCPGNYCKNGICMPSDHSHFPRGEIEESIIENLGNDHNAAAGDGYPRRTTLTSKIYHTKGQEGSVCLRSSDCAAGLCCARHFWSKICKPVLKEGQVCTKHKRKGSHGLEIFQECYCGEGLACRIQKDHHQASNSSRLHTCQRH", "values": [{"measurement": "reduction of binding to LRP6 against wild-type Dkk1", "setting": "[1]", "value": "> 50", "unit": "%"}]}
{"binder": "Dkk1 mutant L266A (ligand, mouse, UniProt O54908 32-272, looked up, not shown: large carriers) TLNSVLINSNAIKNLPPPLGGAGGQPGSAVSVAPGVLYEGGNKYQTLDNYQPYPCAEDEECGSDEYCSSPSRGAAGVGGVQICLACRKRRKRCMRHAMCCPGNYCKNGICMPSDHSHFPRGEIEESIIENLGNDHNAAAGDGYPRRTTLTSKIYHTKGQEGSVCLRSSDCAAGLCCARHFWSKICKPVLKEGQVCTKHKRKGSHGLEIFQRCYCGEGLACRIQKDHHQASNSSRAHTCQRH", "values": [{"measurement": "reduction of binding to LRP6 against wild-type Dkk1", "setting": "[2]", "value": 40, "unit": "%"}]}
{"binder": "mouse Dkk1-AP mutant H267E (ligand, UniProt O54908 32-272, looked up, not shown: large carriers) TLNSVLINSNAIKNLPPPLGGAGGQPGSAVSVAPGVLYEGGNKYQTLDNYQPYPCAEDEECGSDEYCSSPSRGAAGVGGVQICLACRKRRKRCMRHAMCCPGNYCKNGICMPSDHSHFPRGEIEESIIENLGNDHNAAAGDGYPRRTTLTSKIYHTKGQEGSVCLRSSDCAAGLCCARHFWSKICKPVLKEGQVCTKHKRKGSHGLEIFQRCYCGEGLACRIQKDHHQASNSSRLETCQRH", "values": [{"measurement": "reduction of binding to LRP6 against wild-type Dkk1", "setting": "[1]", "value": 43, "unit": "%"}]}
